Patent US8030048B2, “Enantioselective epoxide hydlrolase and method for preparing and enantiopure epoxide using the same” (Korea Ocean Research and Development Institute, priority 2005, dated 2011)
Where “and” joins values, the source holds several entries; their conditions need not be identical. Equal values may be shown once.

T1: Erythrobacter litoralis HTCC2594 epoxide hydrolase rEEH1 (EEH1), SEQ ID NO: 13 (Erythrobacter litoralis, UniProt Q2NAV3)
T1 construct: microsomal-EH-like
T1 sequence (Q2NAV3 1-373): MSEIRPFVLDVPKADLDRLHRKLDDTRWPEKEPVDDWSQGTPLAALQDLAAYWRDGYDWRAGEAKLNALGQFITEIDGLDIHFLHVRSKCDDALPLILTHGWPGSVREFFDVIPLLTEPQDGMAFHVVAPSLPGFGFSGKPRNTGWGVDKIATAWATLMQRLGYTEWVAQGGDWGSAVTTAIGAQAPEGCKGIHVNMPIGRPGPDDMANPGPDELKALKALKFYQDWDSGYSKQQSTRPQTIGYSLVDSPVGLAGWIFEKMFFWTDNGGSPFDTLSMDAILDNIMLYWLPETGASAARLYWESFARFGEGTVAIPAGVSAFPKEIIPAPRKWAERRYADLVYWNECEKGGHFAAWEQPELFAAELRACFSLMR

B1: Erythrobacter litoralis HTCC2594 epoxide hydrolase rEEH1 (EEH1), SEQ ID NO: 13 (Erythrobacter litoralis HTCC2594) (protein)
chain: T1 sequence (Q2NAV3 1-373)
notes: microsomal-EH-like
B2: Erythrobacter litoralis HTCC2594 epoxide hydrolase rEEH3 (EEH3), SEQ ID NO: 17 (Erythrobacter litoralis HTCC2594) (protein)
chain: MPDPASGIAINRVPANGLEFEVAMAGEGDHLALMLHGFPELHFSWRHQMPLLAEMGYRVWAPNMRGYGETTRPTEVRDYALDHLTQDVAALIDASGATKVTLIAHDWGAIIAWYFAILKLRPLERLVIMNVPHPKVLQRELRRWEQIKKSWYVFFFQLPWLPEKRIGADSGKRIGELFAQTSCNPERFGPDVKAVYAAGAARPGAPRAMVNYYRAAMRHRDTIDPGDFRVDVPTLLVWGEEDVALNIRCTEGTEQWVPDITVKRLPNVSHWVQQDAPDEVNAILREWLPKPAPAS
notes: soluble-EH-like alpha/beta hydrolase

Columns and labels:
[1] = target: T1, Erythrobacter litoralis HTCC2594 epoxide hydrolase rEEH1 (EEH1), SEQ ID NO: 13; assay: Kinetic parameters of purified rEEH1 by GC analysis with (R)- or (S)-styrene oxide; type: biochemical; settings: 100 mM potassium phosphate pH 8.0, 30° C.
Protocol: (§1) Kinetic parameters of the rEEH1, rEEH2, rEEH3, sEEH, nEEH, and rEEH were determined by a GC analysis using (R)- or (S)- styrene oxide substrate. 100 ul of purified EHases were mixed with various concentrations of (R)- or (S)- styrene oxide in a 10 ml tube containing 1 ml of potassium phosphate buffer (100 mM, pH 8.0), and shake-incubated at 200 rpm and a temperature of 30° C. The extraction mixtures were extracted with 2 ml of hexane, and enantiomeric excess [ee; ee=100×(S−R)/(S+R)] toward enantiopure styrene oxide was analyzed with a chiraldex gamma-cyclodextrin trifluoroacetyl(G-TA) capillary GC column. Wherein, the FIG. 8 was diagramed with GC analysis for the hydrolyzing activities of enantioselective EHases (rEEH1, rEEH2, and rEEH3) toward racemic styrene oxide.
(§2) Kinetic parameters were estimated by non-linear regression analysis using a Sigma Plot program, and various substrates as depicted in FIG. 1 were also tested for the enantioselective hydrolyzing activity by rEEH1, rEEH2, rEEH3, sEEH, nEEH, and rEEH.

[2] = Effects of pH and temperature on the EHase activity of rEEH1, rEEH2 and rEEH3; type: biochemical; settings: for optimum temperature (maximum hydrolysis rate): 10 to 70° C. at pH 7.5; for optimum pH: activity toward styrene oxide, pH 4.0 to 10.0
Protocol: The effect of pH on the EHase activity was measured with 50 mM sodium acetate-acetic acid buffer (pH 4.0 and 6.0), 50 mM MES buffer (pH 6.0 to 7.0), 50 mM Phosphate buffer (pH 7.0 to 9.0), and 50 mM Glycine buffer (pH 9.0 and 10.0), and the optimum reaction temperature on the EHase activity was measured over a temperature of range from 10 to 70° C. at pH 7.5.

[3] = Kinetic parameters of purified EHases by GC analysis, (S)-styrene oxide; type: biochemical; settings: (S)-enantiomer of styrene oxide, Table 5
Protocol: as §1, §2

[4] = Kinetic parameters of purified EHases by GC analysis, (R)-styrene oxide; type: biochemical; settings: (R)-enantiomer of styrene oxide, Table 5
Protocol: as §1, §2

[5] = Enantioselective hydrolyzing activity of purified EHases toward SO; type: biochemical; settings: for Hydrolysis rate SO (R): (R)-enantiomer; for Hydrolysis rate SO (S): (S)-enantiomer; for enantiomer preference in hydrolysis of styrene oxide, in words: purified enzyme
Protocol: as §1, §2

[6] = Enantioselective hydrolyzing activity of purified EHases toward GPE; type: biochemical; settings: for Hydrolysis rate GPE (R): (R)-enantiomer; for Hydrolysis rate GPE (S): (S)-enantiomer
Protocol: as §1, §2

[7] = Enantioselective hydrolyzing activity of purified EHases toward EX; type: biochemical; settings: for Hydrolysis rate EX (R): (R)-enantiomer; for Hydrolysis rate EX (S): (S)-enantiomer
Protocol: as §1, §2

[8] = Enantioselective hydrolyzing activity of purified EHases toward EB; type: biochemical; settings: for Hydrolysis rate EB (R): (R)-enantiomer; for Hydrolysis rate EB (S): (S)-enantiomer
Protocol: as §1, §2

[9] = Enantioselective hydrolyzing activity of purified EHases toward EF; type: biochemical
Protocol: as §1, §2

[10] = Substrate selectivity of rEEH1, rEEH2 and rEEH3 toward various epoxide substrates; type: biochemical; settings: purified enzyme
Protocol: Also, the substrate selectivity of rEEH1, rEEH2 and rEEH3 toward various epoxide substrates depicted in FIG. 1 was same to Table 4.
as §2

[11] = substrate: c1ccc([C@@H]2CO2)cc1; assay: Kinetic parameters of purified rEEH1 by GC analysis with (R)- or (S)-styrene oxide; type: biochemical, Erythrobacter litoralis HTCC2594; settings: other: 100 mM potassium phosphate pH 8.0, 30° C.
Protocol: as §1, §2

[12] = substrate: c1ccc([C@H]2CO2)cc1; assay: as above; type: biochemical, Erythrobacter litoralis HTCC2594; settings: other: 100 mM potassium phosphate pH 8.0, 30° C.
Protocol: as §1, §2

[13] = Enantioselective hydrolyzing activity of purified EHases toward ECH; type: biochemical
Protocol: as §1, §2

[14] = substrate: c1ccc([C@@H]2CO2)cc1; assay: Kinetic parameters of purified rEEH3 by GC analysis with (R)- or (S)-styrene oxide; type: biochemical, Erythrobacter litoralis HTCC2594; settings: other: 100 mM potassium phosphate pH 8.0, 30° C.
Protocol: as §1, §2

[15] = substrate: c1ccc([C@H]2CO2)cc1; assay: as above; type: biochemical, Erythrobacter litoralis HTCC2594; settings: other: 100 mM potassium phosphate pH 8.0, 30° C.
Protocol: as §1, §2

| Molecule | Vmax [1] | optimum temperature (maximum hydrolysis rate) [2] | optimum pH [2] | kcat Km [3] | kcat Km [4] | Hydrolysis rate SO (R) [5] | Hydrolysis rate SO (S) [5] | enantiomer preference in hydrolysis of styrene oxide, in words [5] | Hydrolysis rate GPE (R) [6] | Hydrolysis rate GPE (S) [6] | Hydrolysis rate EX (R) [7] | Hydrolysis rate EX (S) [7] | Hydrolysis rate EB (R) [8] | Hydrolysis rate EB (S) [8] | substrate selectivity, in words [10] | also measured |
| --- | --- | --- | --- | --- | --- | --- | --- | --- | --- | --- | --- | --- | --- | --- | --- | --- |
| c1ccc([C@@H]2CO2)cc1 [(R)-styrene oxide] | 2.3 µmol/min |  |  |  |  |  |  |  |  |  |  |  |  |  |  |  |
| c1ccc([C@H]2CO2)cc1 [(S)-styrene oxide] | 1.18 µmol/min |  |  |  |  |  |  |  |  |  |  |  |  |  |  |  |
| B1 |  | 50 °C | 6.5 | 10600 M⁻¹ s⁻¹ | 16300 M⁻¹ s⁻¹ | 28.0 (×10^−2) mg/min | 9.00 (×10^−2) mg/min | (R)-styrene oxide was hydrolyzed faster than (S)-styrene oxide | 11.0 (×10^−2) mg/min | 20.0 (×10^−2) mg/min | 7.00 (×10^−2) mg/min | 8.00 (×10^−2) mg/min | 15.0 (×10^−2) mg/min | 15.0 (×10^−2) mg/min | hydrolyzed enantioselectively toward monosubstituted epoxides with bulky ring at C-1 position | Hydrolysis rate EF (R) ([9]; (R)-enantiomer): 4.00 (×10^−2) mg/min; Hydrolysis rate EF (S) ([9]; (S)-enantiomer): 15.0 (×10^−2) mg/min; Km [11]: 2900 µM; Vmax [11]: 2.3 µmol/min; kcat [11]: 49.1 s⁻¹; Km [12]: 2300 µM; kcat [12]: 24.5 s⁻¹ |
| B2 |  | 45 °C | 8.0 | 1700 M⁻¹ s⁻¹ | 1600 M⁻¹ s⁻¹ | 0.10 (×10^−2) mg/min | 0.14 (×10^−2) mg/min | (S)-styrene oxide was hydrolyzed faster than (R)-styrene oxide | 0.10 (×10^−2) mg/min | 0.10 (×10^−2) mg/min | 0.17 (×10^−2) mg/min | 0.09 (×10^−2) mg/min | 0.08 (×10^−2) mg/min | 0.11 (×10^−2) mg/min | hydrolyzed enantioselectively aliphatic epoxides at C-1 position and styrene oxide | Hydrolysis rate ECH (R) ([13]; (R)-enantiomer): 0.26 (×10^−2) mg/min; Hydrolysis rate ECH (S) ([13]; (S)-enantiomer): 0.28 (×10^−2) mg/min; Km [14]: 2610 µM and 2600 µM; Vmax [14]: 0.29 µmol/min and 0.2 µmol/min; kcat [14]: 4.3 s⁻¹; Km [15]: 3710 µM and 3700 µM; Vmax [15]: 0.43 µmol/min and 0.4 µmol/min; kcat [15]: 6.5 s⁻¹ |
